Assay results taken from patent US20080280346A1 (published 2008).

Biological target: T1, α-amylase
T1 construct: Coated on ELISA plates at 200 µg/ml in PBS
Assay: ELISA, plate coated with α-amylase, dimer compared with monomeric VamyHlyA

B1: VamyZHlyA (VHH)
VHH: QVQLVESWGGSVQAGGSLRLSCTAPGFTSNSCRMDWYRQAAGKQREWVSSISTDGRTSYADSVKGRFTISKDKAKDTVYLQMNSLKPEDTAIYYCAVRTNGYRPQSHEFRYWGPGTQVTVSS
modifications: Non-covalent homodimer through the GCN4 leucine zipper; one monomer chain is given.
notes: also called dimeric VHH-HlyA polypeptide; VHH-ZEHlyA hybrid
Q: For B1, which “fold increase in functional affinity (avidity) against the monomeric form” value is on record?
A: Its value is 10 fold.
